The subject of the data set is T1, PsdR-His (Pseudomonas aeruginosa PAO1?), ORF:604e189e.
T1 sequence: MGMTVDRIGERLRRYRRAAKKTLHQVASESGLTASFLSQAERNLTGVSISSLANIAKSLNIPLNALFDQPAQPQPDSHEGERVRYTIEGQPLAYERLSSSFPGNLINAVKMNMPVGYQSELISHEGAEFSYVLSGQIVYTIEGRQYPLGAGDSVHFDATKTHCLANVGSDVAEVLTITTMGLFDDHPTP
Nature of the data set: EMSA. Conditions: 10 mM Tris-HCl pH 7.5, 50 mM KCl, 1 mM DTT, 1% glycerin, 10 mM MgCl2, 1 ug/ul poly(dI-dC), 25 C, 30 min; 6.5% polyacrylamide gel. Background: A gel shift assay detects complexes by their altered migration in electrophoresis.

In the case of “CGGGTATCGTACTAGGTGCATCAAACGCTGCGGTCTATTGTTAAGTGGGACTGAAATGTGCCTTTCCGGCACAACGCCAACTCTATAGA (double strand) [PlasR-WT]”, the binding result was “binds”.

The values are drawn from publication PMC10965056.
